Assay results as given in the supplement of paper PMC9112550, “Optimization of the antimicrobial peptide Bac7 by deep mutational scanning” (BMC Biology, 2022).

These sequences were tested on Escherichia coli TOP10 (assay: shrunken log2 fold change of peptide-encoding DNA abundance (4.5 h post-induction vs induction); higher = less antimicrobial activity (less host growth inhibition)). Settings: time post-induction: 4.5 h; library: site-saturation at positions 5, 18, 19, 20.
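Further: peptides expressed intracellularly from a pBAD plasmid library in pooled LB shake-flask culture, induced with 0.3% L-arabinose, DNA abundance read by NGS, three biological replicates, DESeq2 with apeglm shrinkage.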

Sequence | shrunken log2 fold change
RRIRERPPRLPRPRPRPHLDPRP | 0.000475
RRIRNRPPRLPRPRPRPHICPRP | -0.0994
RRIRLRPPRLPRPRPRPTDLPRP | -0.0813
RRIRARPPRLPRPRPRPTSSPRP | 0.289
RRIRTRPPRLPRPRPRPHLCPRP | -0.17
RRIRRRPPRLPRPRPRPCNVPRP | 0.0391
RRIRLRPPRLPRPRPRPFLGPRP | -0.0654
RRIRYRPPRLPRPRPRPENWPRP | -0.223
RRIRVRPPRLPRPRPRPTHLPRP | 0.37
RRIRVRPPRLPRPRPRPPALPRP | 0.189
RRIRIRPPRLPRPRPRPWFPPRP | -0.349
RRIRKRPPRLPRPRPRPYINPRP | -0.627
RRIRNRPPRLPRPRPRPGYEPRP | 0.0608
RRIRKRPPRLPRPRPRPREGPRP | 1.08
RRIRERPPRLPRPRPRPAKMPRP | -0.194
RRIRSRPPRLPRPRPRPDEYPRP | -0.205
RRIRYRPPRLPRPRPRPWVRPRP | -0.108
RRIRKRPPRLPRPRPRPDTPPRP | 0.546
RRIRLRPPRLPRPRPRPSAAPRP | 0.419
RRIRARPPRLPRPRPRPIYEPRP | -0.352
RRIRDRPPRLPRPRPRPQTEPRP | 0.125
RRIRPRPPRLPRPRPRPILWPRP | 0.0824
RRIRSRPPRLPRPRPRPVPVPRP | 0.362
RRIRTRPPRLPRPRPRPGGRPRP | 0.384
RRIRRRPPRLPRPRPRPDRMPRP | -0.00208

Sequence | shrunken log2 fold change
RRIRSRPPRLPRPRPRPYGSPRP | -0.0102
RRIRVRPPRLPRPRPRPQYSPRP | 0.0315
RRIRDRPPRLPRPRPRPRFWPRP | 0.935
RRIRFRPPRLPRPRPRPPIDPRP | 0.113
RRIRIRPPRLPRPRPRPCRMPRP | -0.186
RRIRKRPPRLPRPRPRPEVHPRP | 0.013
RRIRERPPRLPRPRPRPVTPPRP | 0.0669
RRIRSRPPRLPRPRPRPPCWPRP | 0.29
RRIRVRPPRLPRPRPRPVECPRP | -0.286
RRIRSRPPRLPRPRPRPKHKPRP | -0.0831
RRIRKRPPRLPRPRPRPVEWPRP | 0.12
RRIRDRPPRLPRPRPRPYSHPRP | -0.471
RRIRPRPPRLPRPRPRPVWAPRP | 0.278
RRIRERPPRLPRPRPRPNVQPRP | -0.403
RRIRPRPPRLPRPRPRPTTRPRP | 1.65
RRIRWRPPRLPRPRPRPHKSPRP | 0.0767
RRIRGRPPRLPRPRPRPSWLPRP | 0.519
RRIRQRPPRLPRPRPRPIEYPRP | -0.0135
RRIRTRPPRLPRPRPRPKCKPRP | 0.0156
RRIRMRPPRLPRPRPRPRILPRP | 0.0948
RRIRIRPPRLPRPRPRPKKHPRP | -0.21
RRIRMRPPRLPRPRPRPTHDPRP | 0.81
RRIRVRPPRLPRPRPRPVMMPRP | -0.938
RRIRPRPPRLPRPRPRPCDKPRP | 0.0695
RRIRMRPPRLPRPRPRPSHRPRP | 0.254

Sequence | shrunken log2 fold change
RRIRNRPPRLPRPRPRPCLGPRP | -0.219
RRIRQRPPRLPRPRPRPCVDPRP | 0.148
RRIRERPPRLPRPRPRPHKFPRP | -0.984
RRIRCRPPRLPRPRPRPEWVPRP | 0.293
RRIRWRPPRLPRPRPRPKFQPRP | -0.00693
RRIRGRPPRLPRPRPRPQTNPRP | 0.433
RRIRHRPPRLPRPRPRPMMLPRP | -0.286
RRIRGRPPRLPRPRPRPYIIPRP | -0.158
RRIRIRPPRLPRPRPRPNVVPRP | -0.508
RRIRMRPPRLPRPRPRPGYAPRP | 0.341
RRIRGRPPRLPRPRPRPAPIPRP | 0.586
RRIRQRPPRLPRPRPRPYAFPRP | -0.175
RRIRPRPPRLPRPRPRPWYRPRP | -0.601
RRIRHRPPRLPRPRPRPVEAPRP | 0.0753
RRIRHRPPRLPRPRPRPGDIPRP | -0.412
RRIRPRPPRLPRPRPRPDTRPRP | 0.0199
RRIRARPPRLPRPRPRPYFDPRP | -0.123
RRIRHRPPRLPRPRPRPICFPRP | -0.114
RRIRHRPPRLPRPRPRPMMHPRP | 0.117
RRIRGRPPRLPRPRPRPGGMPRP | 0.662
RRIRWRPPRLPRPRPRPAQIPRP | 0.0333
RRIRWRPPRLPRPRPRPYCLPRP | -0.633
RRIRIRPPRLPRPRPRPQKKPRP | -0.0235
RRIRPRPPRLPRPRPRPNKYPRP | -0.662
RRIRVRPPRLPRPRPRPWVLPRP | 0.054
